From US12630599B2, “CA2 compositions and methods for tunable regulation” (Obsidian Therapeutics, Inc., priority 2019, dated 2026)

System: Nalm-6 cells
Test: 48 hour cytotoxicity assay, T cells co-cultured with Nalm-6 cells (NucRed), Incucyte (Example 4, Table 14)
Type: cell-based
Conditions: for Average Total Nalm6-NucRed Area after 48 hour at E:T ratio of 3:1: E:T ratio 3:1, 48 hour; for Average Total Nalm6-NucRed Area after 48 hour at E:T ratio of 10:1: E:T ratio 10:1, 48 hour
Source text: The following constructs were transduced into T cells: OT-001356 (nucleic acid sequence SEQ ID NO: 6081 encodes two amino acid sequences, first is SEQ ID NO: 6082 (nucleic acid sequence SEQ ID NO: 6083) second is SEQ ID NO: 6084 (nucleic acid sequence SEQ ID NO: 6085)), OT-001356 (amino acid sequence provided as SEQ ID NO: 6092 and nucleic acid is SEQ ID NO: 6093) OT-001407 (amino acid sequence provided as SEQ ID NO: 6086 and nucleic acid is SEQ ID NO: 6087), OT-001895, OT-002011, OT-002111, OT-0020%, OT-02171. The cells were expanded for 10 days and utilized for cytotoxicity assays. Percentage of CAR positive cells obtained with each of the constructs was as follows: OT-001356: 45.3%; OT-001407, OT-001895: 29.4%, OT-002011: 24.3%, OT-002111: 19.6%, OT-0020%: 6.08%, OT-002171: 13.3%. For cytotoxicity assays, T cells were thawed and co-cultured with Nalm-6 cells (stably expressing NucRed) at different T cells to Nalm-6 cell culture ratios. Target cell viability was determined by measuring cellular fluorescence over time using an Incucyte assay and the results are shown in Table 14.

B1: OT-002111: construct transduced into T cells for the study of the effect of mbIL12 on CAR activity (protein)
chain: IWELKKDVYVVELDWYPDAPGEMVVLTCDTPEEDGITWTLDQSSEVLGSGKTLTIQVKEFGDAGQYTCHKGGEVLSHSLLLLHKKEDGIWSTDILKDQKEPKNKTFLRCEAKNYSGRFTCWWLTTISTDLTFSVKSSRGSSDPQGVTCGAATLSAERVRGDNKEYEYSVECQEDSACPAAEESLPIEVMVDAVHKLKYENYTSSFFIRDIIKPDPPKNLQLKPLKNSRQVEVSWEYPDTWSTPHSYFSLTFCVQVQGKSKREKKDRVFTDKTSATVICRKNASISVRAQDRYYSSSWSEWASVPCSGGGGSGGGGSGGGGSRNLPVATPDPGMFPCLHHSQNLLRAVSNMLQKARQTLEFYPCTSEEIDHEDITKDKTSTVEACLPLELTKNESCLNSRETSFITNGSCLASRKTSFMMALCLSSIYEDLKMYQVEFKTMNAKLLMDPKRQIFLDQNMLAVIDELMQALNFNSETVPQKSSLEEPDFYKTKIKLCILLHAFRIRAVTIDRVMSYLNASGSGSGSGSADFPTPSISDFEIPTSNIRRIICSTSGGFPEPHLSWLENGEELNAINTTVSQDPETELYAVSSKLDFNMTTNHSFMCLIKYGHLRVNQTFNWNTTKQEHFPDNGS
Average Total Nalm6-NucRed Area after 48 hour at E:T ratio of 3:1: 42,520
Average Total Nalm6-NucRed Area after 48 hour at E:T ratio of 10:1: 42,899

B2: OT-002011: construct transduced into T cells for the study of the effect of mbIL12 on CAR activity (protein)
chain: IWELKKDVYVVELDWYPDAPGEMVVLTCDTPEEDGITWTLDQSSEVLGSGKTLTIQVKEFGDAGQYTCHKGGEVLSHSLLLLHKKEDGIWSTDILKDQKEPKNKTFLRCEAKNYSGRFTCWWLTTISTDLTFSVKSSRGSSDPQGVTCGAATLSAERVRGDNKEYEYSVECQEDSACPAAEESLPIEVMVDAVHKLKYENYTSSFFIRDIIKPDPPKNLQLKPLKNSRQVEVSWEYPDTWSTPHSYFSLTFCVQVQGKSKREKKDRVFTDKTSATVICRKNASISVRAQDRYYSSSWSEWASVPCSGGGGSGGGGSGGGGSRNLPVATPDPGMFPCLHHSQNLLRAVSNMLQKARQTLEFYPCTSEEIDHEDITKDKTSTVEACLPLELTKNESCLNSRETSFITNGSCLASRKTSFMMALCLSSIYEDLKMYQVEFKTMNAKLLMDPKRQIFLDQNMLAVIDELMQALNFNSETVPQKSSLEEPDFYKTKIKLCILLHAFRIRAVTIDRVMSYLNASGSGSGSGSGSGSGSGSGSGSGSGSGSGSGSLDFACDLLPSWAITLISVNGIFVICCLTYCFAPRCRERRGS
Average Total Nalm6-NucRed Area after 48 hour at E:T ratio of 3:1: 59,465
Average Total Nalm6-NucRed Area after 48 hour at E:T ratio of 10:1: 44,301
